# Reference: a protein production outcome set (Wang et al. 2014)
# Experiment: label from the status in PepcDB records
row,Sequence,protein production
1,MLNEEQNSLEEKGGENKNEKETPLKGIHSKIPSLKQALEQTISKIKSSKEFFKQILHNKKKLYIALGALLLLIVLIVALSLLLGHKKENKQTSLQTNTIATNNETPNNTNNANNTEAERQIENLDLSDLIGKDSLKRNDENQVDAIMKKASLLYEQGQKDEALHLFDKAASFSQGIASHNLGVIKFKEKDFNGALDLFDSSIASKENASVSAIDALVSAYHLQDEDLYYHYLKIARDTLYKDYKKSFYSYAYALKSYYAGEYFEALSPLMHPNSNAFLKPNTRLASKLFLMFKDETNAYEQLQKSANAQDELALGLLQARLGHYKQALEHLQHYLHNYPKDLNALMALELVSLKKGDTLKASEALKLASHTKEDTLLANSFYPIKPTINPVFLDKERAKERFWNTQYFEGKRDFIYRLLFYYAPFKVLDSKETLGVIEEGLFLLDSDAQKDLEGASLAFKRGRLMAIADKNALQGLKALENKRLKKALSFFDLSLKNSPNNALLHYNTGLIYAQLENYHKAYFHFLRAFHLNSADYLSAVFAILASHFTHEDTTEFLREITENFYSQDFSSPTQKALLSSLIAYLNYRTNWDMDWLKNAPKKLPFYYALEAAFAKESKDKKLMVQSFGNLKKMLPKDLISNIFYEIVSYYDASIRHTLSIYTLLDSHKISWDQTMQGPILGRHFYTYMGFMVNDLDHQERLLEQKIASLEEGEAPNDWLENLALVSLFQGQYEKASALYQNLISGLKDNETHLKILAGLTYIAQNNYDSAALWLELGKLDDPNNENIRYALGLLYQRKGDLKSALNHFLAIKTSDFSSPYFDFEIDANLLKERLDQEKEGEFLE,failed
2,MLNIGVKDVKTNLLTPVVTLSIFGSTGAVLPALAIPVITPTQQDIQPALPEPSPLPPTSPPVLEPPPSPPSPAPESENVLIPVQKIIVEGSTLFGPAEFDPILKPLEGQQVTLAELQRATDAITKLYLEGGYLTSRAVLNEQVVRDGVIRIQVLEGRLEDIRIEGNKGIIQRYIRSRIALGAGVPLNGNRLEEQLRLLRTDPLFANLSASLRPGTTPQESVLVVRVVPARWLNAAFGLDNHTSPAIAPNRATAFLGYNNLSGRGDSVYGSYAIGNNLGTFDWGASNTVEFGYSLPLNAMNGTLTIRTLQADSEITRPPALAAFNIRSESSIYQASFRQPVIRTIREELAFGIGFLMQSAQTFVLGVPAPISPGANASGYSASRVLEFTQEYTRRDTQGAWVFRSQFNFGLPIFGATENPSPIPDGNFFSWLGQGQRLQLLWADNLLILRTDVQLTPNSLLPFHQFVIGGPLSVRGYSTNALSGDNGLRFSGEARFPVLRTANRRPIISIGPLFDLGVVWNHSRNPAGAVPNNVIAGLGMGLLVQPTPNLDLQLQYAAPLIDLPGQTRSLQSDGIYFSLTVRP,failed
3,MLNIKRIKKKMNARNLFATAALLFTASTAFAQTGVQTNTPFGSGEDSIRCRQNISLFTSYAKTGNYKDAYDFWEKAYEECPASTKNIYIYGVKISEWRLQNEQDPAKRQQIIDKILKLYDDRVKYFGEDPKYGTDYIMASKISDYMQYMGDKTDYDKVYEWIKPTIDQHGENATPRALFYYAYSSLNKAIRNEAWHETYIKDYTFASQAMEKQLEVADEKGKEFIQPLKTQIDELFAQSGLADCNTLVKMYGDKLEENKTDTTFLKNMLGMFHASDCETHPLYFQANKYLFAVQPSAIAAMGLAKEAMEGNRYNEASDYLQKAIELSKSAKDRAACNYTLGLLAMKQGSYSTARSYCNKALAEDPAMGDALILIAQMYAATANTVFPGDAIKARCVYFLAVDKLQRAKNIDPSCAPRANRLISQYSRNFPSPADVFMHPDLEKGKSLFVGGWIGESTVIR,failed
4,MLNLSQNGCSVWVASSTEMVLTPTAVALGKFDGVHLGHQRVIQPVLQSTRSAQTWGDALDSSAQSANPPAAPQERIYSTVVTFRPHPQEFFTGQARTWLTPLDEKVQQLRSLGVDQLVLLPFDKELTALSPEEFVEKILVQQLRCQRISVGQDFCFGKQRRGTAKDLQLIAAKYHIPVSIVPLQTSDGQFLEDGNCGSFESLEDAPISTSLIRQALETGDIKTANRFLGRPYILIGVVVEGEQLGRTIGFPTANLELPKDKFVPRQGVYAVRVKILGESADANIPLEILGVMNIGNRPTVNGTYSSVEVYLLDWSGDLYGKELAVQLVDFLRPEQKFPSLEALKAQIQQDCTVARQILSREN,failed
5,MLNLSSIMKPNEIMKNWIDPEAKAEAERYDNPIPSRTLILTTLEQLDLPQSHAELVDHFDIHDQKSIDALSHRLIAMVRDGQLSKDGFKFQPIGEQPTFDATVYINNKGFGSAHIDGQNDLLLPERELRLVFNGDRVKVRQTSVDRKGKAWGFITEVTQHRVKQLIGKLAVHEGEYFLQPSAPNAHQPIPLEKELIEHAQAKVGENLRVAIDDYPTREEFSTGHIIQSMSDKADTEIIIPQTILEFGLPYEFPEEVVKDAESFKEPSKKDIEGRIDLRDLPLVTIDGEDARDFDDAVYAEKRSGGGYRVVVAIADVSHYVRLGKPLDDEAQERGTSVYFPHFVLPMLPEALSNGLCSLNPHVDRLCMVCDLKLSRAGRVMSYEFYPSVMHSKARLTYTQVGNYFDGQTDAIPDDKNIQKSLNTLFQLYQTLKGLRAKRHAMEFETIETYMTFDELGGIKEILPRTRNEAHKLIEECMLLANVAAAEFSLQHDIPMLYRVHEAPEFSRIQKVKDFVKLLGLPFPDQPTQADYQRVIEATKDRIDAPSIHAVLLRSMMQAYYGAKNAGHYGLAYEAYTHFTSPIRRYPDLLLHRAIKAHLQQKPYPLSGAALDDAGEQFSRTERRADEASRSVTTWLKCHYMKQHLGEEFIGIISAVTEFGLFVTLKDLYVDGMIHVSQLGDDFFLYDQASQSLVGQNRGQIFGLGDEVKIKVAAVNLDERKIDFELMQQITHAGRVIRQKAPRSSKTQATEQVFNVPSETTSTQERDTRKKEKSKSKPSSYAKKSAKKSSPASVSKPVKEKKKVKVKKKKSNAKPKSE,failed
6,MLNPRIKWSSRKFGNLFDVILHLFFSDTFLFKEIPVDVDQLLVTWDGKLVSCLPTGTRGNYLCKVSSPPGVHRVSVEVIYGGRRIVKTENVPLIDFDISLSLDKNSLLVKLLGYSDPDTISVKLNGTPLTPSRIGPGEYRVDITERGVAEVEVCISGICKRSIINVEPHLSLSDWDPSVWVGRNLYGYQVMEFLGEGGFSYVMKASSPGGVVALKIPKLTQSPASGLTRNVINVLDDLFKEQSALLELSDSPYLVKLVGVHLDRDSVRRALTEPRYYLEYPPMIVMEFMAGGSVSRLVKDDVQFYSDNWKTAVFMIISRISSGLLKIHEKGYVHCDVKPSNILLDREPPPTAGELYERMKRREVNPKLADLGSAVKIGGVPPGVTLEYSSLEQVTSTRYGGVNPRDDVYSLGATIYYLLTKRYLNSPMIPFMEKALGGGGLDNSVYALRDYSTLEAVGLDSKIVRFIKDMTSENRDKRPSSLEVFNFFTSLVN,failed
7,MLNPSLDIISLMAYLTSSSLVGLKLLNFSINLFISSSFLTFLKSLKCSLILPISMPANSGILFTAVSFMLARSLAMSSFGVFSSIINLFTTIHLPYLAVKLI,failed
8,MLNSAGKLIYGLCFLLVVCVNNAMAEVIHSERSLYRNILVEDNGDLRCLKFNVKSTKTRQSCLLKSQPQQLVFNYTKQLLTGLLVNPEPKHILIIGLGGGTMSNTLHQLLPDSYIDNVEIDESVIKVARQYFGFLENDQIKTYSQDGRVFVKRALLKKQEYDWIILDAFNGDYIPEHLMTKEYLEETKRLLSPQGILTANTFSSSQLYRYESATYKAVFGDYYQVSNPDNSNRIILARNSGLDENLYKELAAAEQSESITQLAIKLLAIGVEVKQLYKNIKSTATHQDWPDDSPVLTDQFSPANLLNIDVD,failed
9,MLPDVFRADTGSRSLIQAQSDAQAVLTWLAEHADRPATLAAYRKEAERLLLWLAPRRQTLAQVKREDVLDYRRFLASPHPAEQWLGPARPRSHPDWKPFSKPLSPASVEHSLTVLGALFAYLNDAGYLNGNPFKLLRRRGARKSAQEIERFLDADCWRHLQATLNGLPRGSDREIRHAERALWLFTLLYLTGARRAEAAAARACDLARRNGNWWWHVVGKGGVSARIPLSDELMDALARYRLSLGLPPQPAADEDTPLVCRVGSKGQAKPLSDKAIYLVCKEVFGRAQAAAPNEDIRAKLRAASTHWLRHTAASHQLEAGVPLLLVSQNLRHASIQTTRRYLHSEEDARHEASRLHKLKRDS,failed
10,MLPHSGRMVLIDRITRYGDDFVEAGAQVKPDHILLAGGMLPYTAFIELMAQAVGAYAGIQARKNARPVRLGFLPGTRKLEIFAQSVPVGTHLPATAHMSIQDAGVWACPTANCVGRMRRKLRPEHSFQTAFWHAPHSTCTAPNTMTEQLTPSEQAHIRRTTMTETVLITGSNRGIGKAAALEHHHHHH,failed
11,MLPKRQLFLDRLNQALAWSQFSGVPGALLLIDLGLPAHLDGSPSLSPDAEENLEIIANRLQAYVRPHETLAHLNHHQFGLLLLDPDVQLRAEERAHGIQTLIRDRLAGFEGGAHIGIVPLTPETPATVLLQAAEAAAMTARSQQQGHLSLEASLEHHHHHH,not failed
12,MLPLNDYLQPFGLVIKPMQEDLTPYLGIKVKSEAGQEKITFVAAHSPAAMAGISPQDLLLAINGVRVGAEQLSLRLKDYQANDMIQLTVFHQDLLRTVDVVLASPQANRYEVVPIADPSDSQLEHHHHHH,not failed
13,MLPLTLIAILSLGIVEGLDPYKGLLFSYYFYSFRKVKESYVVPIVSTITYYIVGILIVEWLNISDNILTRGIMFSLLLVHVLIKLVIGKVLHYPSNMRPKILNVIQWSAINSIIQMNFIILLTLSILSKPSLILLPITVIIVRETTYCLSVKNNKILLKLTEYNFDYFYLITVLLLGIVIILPLL,failed
14,MLPMLLWLVANLFLAPAAEGFHGMNKTNTWAVILSSSRYFFNLRHTTNALAMYHLCRKHGMDDDHILVFLSDSYACDPRKPNPATIYGAPAQAEQPNLYGCNIRVDYASYDVGVRRFLGVLQGRYDENTPPSRRLDTDENSNIIIYAAGHSAEKFFKFQDSEFMSSTDIADTLMMMWEQRRYRKLVFLVDTCRALSLCLEIKAPNVVCLASSEAHLDSYSHHLDPPSGFTVITRWTFEFLEVLKDSKCRPENGEVTLLQKSFYDFNYGPERLSLPQPLSEPAHFDAVNRPNAIREWKMDEFFCEQDRDKIPVELRYDLF,failed
15,MLPPPPSASPAARENTDPGGHRADSGVSYSKIDPVGTFVRLLGLIAPAWQAVLGATLLGSGTIASNIGLMATAAFLIASAALHPPAGKLMLAIVGVRFFGITRAVCRYLERYVNHSITLGILGRLRVAFYRTLEPLIPAGLQGHHSGDLLSRAVADVATLENFYLRVLNPPLVALPVAAGVFLFLAHFGRTLALAWMGAFLAAGVIFPVGVTIVGRGVMRRQGEARAALNTALVDTVQGLADILVFDHGRQQQEYIATLDRQYLHLQGRKAGLNGLANALTSLASNLALWAVLVLAIPLVNRGQIDGVYLAMLALTAAAALEAAKPLPMLFPHLEGSLAAARRIFALSDTRPAGDPAGPVPHPRDFSLRVQGLRFRYGPGEPPALDGIDFDVPSGARIAIVGPSGAGKSTLVNLLLRFWDYEEGAILLGGYDLKAYPPEELQRFIGVVAQPTHLFHATIAENLLLARPDATREEMERAAREARLHEFIQVLPRGYDTLIGEEGFKLSGGQRQRLAIARALLQNAPILILDEATTGLDAVTEREVMDSIRHLMEGRTTLVITHRLVGLEDMDKILVLDRGRLVQQGRHAELLRQEGLYRHLWQLQQEALP,failed
16,MLPPYNYMDNGTLKGISIDLLEAITEKMGKKVTREEIHLVSWTEGYQAALTRNNTVLFVTARTPEREQSFKWVGPIYSDKYVLFAKRDPGVTIDGPEDLKEYRIGVISDDVAAQQLLNIGLEHHHHHH,not failed
17,MLQKPVQLLLWVAICLLVLLTVYVFFMLDMLWSPFWLVIKTIFIPLIISIFISYLLLPVTEWLHGKGLPRTLSILVIYVLFFGGIGWALYKGVPVLIVQLTDLSENIPMFAETYNGLLLHVHNHTDDWPDGMHHRIDKMIRQTEAFFAGTIEGAISGIRNVLDYFLIAATIPFLVFYMVKDIELMKKTVWYLTPKSWRKRGSAFLRDVDDSLGDYIRGQLLVCLILGVIAGISFWVFGLPYPLILGLISGVTNVIPYFGPFIGAVPALLIAMTISVKAVLVVVITVFILQFMEGNILSPFIVGRSLKMHPVVIMLALLAGGELAGIVGMILAVPATAVLKVMMIHFLRMRTEH,not failed
